Measurements as given in patent publication US20210238276A1 (INTEGRAL MOLECULAR, published 2021).
Substitutions are numbered along the chain they refer to.

Assays:
Assay in all cases: flow cytometry, alanine-scan library in HEK-293T, with cytochalasin B
hsGLUT4 Q298A = molecular target: T1, hsGLUT4 Q298A (human, UniProt P14672 1-509)
T1 sequence: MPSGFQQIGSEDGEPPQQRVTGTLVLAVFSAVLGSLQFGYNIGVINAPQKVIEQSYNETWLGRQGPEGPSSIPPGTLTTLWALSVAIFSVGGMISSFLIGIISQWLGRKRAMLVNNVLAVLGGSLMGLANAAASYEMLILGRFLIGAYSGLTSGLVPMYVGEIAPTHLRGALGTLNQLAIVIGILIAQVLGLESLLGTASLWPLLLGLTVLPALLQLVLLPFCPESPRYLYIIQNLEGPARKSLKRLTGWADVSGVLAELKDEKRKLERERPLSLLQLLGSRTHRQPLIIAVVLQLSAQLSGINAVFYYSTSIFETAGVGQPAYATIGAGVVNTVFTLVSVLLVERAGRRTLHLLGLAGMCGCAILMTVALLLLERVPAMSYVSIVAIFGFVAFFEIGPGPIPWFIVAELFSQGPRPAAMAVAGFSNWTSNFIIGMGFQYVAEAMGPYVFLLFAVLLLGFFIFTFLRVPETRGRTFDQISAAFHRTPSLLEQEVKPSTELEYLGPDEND
In short: (§1)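 HEK-293T cells expressing individual GLUT4 alanine mutants were stained 48 h post-transfection with anti-GLUT4 scFv MAbs (2 μg/ml), then biotinylated secondary and streptavidin-PerCP, and read by high-throughput flow cytometry. Where used, cytochalasin B (10 uM final) was given for 30 min before and during primary antibody staining.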

hsGLUT4 G356A = molecular target: T2, hsGLUT4 G356A (human, UniProt P14672 1-509)
T2 sequence: T1 sequence with A298Q, G356A
In short: as §1

hsGLUT4 I313A = molecular target: T3, hsGLUT4 I313A (human, UniProt P14672 1-509)
T3 sequence: T1 sequence with A298Q, I313A
In short: as §1

hsGLUT4 G65A = molecular target: T4, hsGLUT4 G65A (human, UniProt P14672 1-509)
T4 sequence: T1 sequence with G65A, A298Q
In short: as §1

B1: AB102 (Fc fusion)
scFv: ALTQPSSVSANLGGTVKITCSGGGSYGYGWYQQKSPGSAPVTVIYSNDQRPSDIPSRFSGSKSGSTATLTITGVRAEDEAIYYCGSTDSDYVGIFGAGTTLTVLGQSSRSSGGGGSSGGGGSAVTLDESGGGLQTPGGTLSLVCKASGFDFSSYATIWVRQAPGKGLEWVAGISGTGTGSSTGYAPAVKGRATISRDNGQSTVRLQLNNLRAEDTGSYFCAKSTGYGDSWIYPDSIDAWGHGTEVIVSS
notes: also called MAb AB102; not shown: Fc fragment of human IgG1, cloned in frame with the scFv
hsGLUT4 Q298A
  % of binding to wild type GLUT4: 107%
hsGLUT4 G356A
  % of binding to wild type GLUT4: 72%
hsGLUT4 I313A
  % of binding to wild type GLUT4: 15%
hsGLUT4 G65A
  % of binding to wild type GLUT4: 95%
